The target in the data set is T1, ProXp-ala K50A (Caulobacter crescentus, UniProt Q9ABV9 1-168, K50A).
T1 sequence: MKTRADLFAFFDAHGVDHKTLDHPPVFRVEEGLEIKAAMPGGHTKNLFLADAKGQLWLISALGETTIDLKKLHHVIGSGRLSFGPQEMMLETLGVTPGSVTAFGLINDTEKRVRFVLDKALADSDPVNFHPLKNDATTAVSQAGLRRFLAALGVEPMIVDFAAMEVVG
Kind of data set: AUC; 1 mM MgCl2; 9.6 μM protein reaches about 36% bound; EMSA: 81 nM duplex annealed in 50 mM sodium phosphate pH 7.5, 150 mM NaCl, 0-114 μM protein, 1 h room temp, 16% native gel in TBE; NMR: same phosphate buffer, 1. The conditions noted are these: protein: recombinant; tags: N-terminal His6 removed by thrombin; leaves Gly-Ser-His; hairpin; 7 bp stem, 3' ACCA single-stranded.

In the case of CGGCGAGUUCGCUCGCCGACCA (structured_RNA) [microhelixPro], the binding signal is approximately 8 fold weaker than WT.

Source of the values: publication PMC10164551, “Structural basis of tRNAPro acceptor stem recognition by a bacterial trans-editing domain”.
